Where two headings read alike, the source gives them in different places.
B1: c208F2 (antibody, human IgG1, kappa, V domains shown)
VH: QVQLQQSGPELVKPGASVKMSCKASGYTFTSYYIYWVKQRPGQGLEWLGWIWPGDGSTKYNEKFKDKTTLTADKSSNTAYMFLSSLTSEDSAVYFCASPMITPNYAMDYWGQGASVTVSS
VL: DIQMTQTTSSLSASLGDRVTISCRASQDISKYLNWYQQQPDGTIKLLIYYTSRLHSGVPSRFSGRGSGTDYSLTISNVEQEDIATYFCQQGSTLPYTFGGGTKLEIKR
notes: also called chimeric 208F2; chimeric form of the 208F2 second IGF-1R antibody
B2: hz208F2 H026/L024 (antibody, human IgG1, kappa, V domains shown)
VH: QVQLVQSGAEVKKPGASVKMSCKASGYTFTSYYIYWVKQAPGQGLEWLGWIWPGDGSTKYNEKFQGRVTLTADKSSNTAYMFLSSLRSEDTAVYFCASPMITPNYAMDYWGQGTLVTVSS
VL: DIQMTQSPSSLSASVGDRVTISCRASQDISKYLNWYQQKPGKAPKLLIYYTSRLHSGVPSRFSGRGSGTDYSLTISNLQPEDFATYFCQQGSTLPYTFGGGTKVEIKR
notes: also called hz208F2 VH3/VL3; hz208F2 VH3VL3

Legend:
[1] = target: T1, human IGF-1R, native, on cells (MCF-7, hIGF-1R transfected cells, tumor sections, primary normal cells) (human, UniProt P08069 31-1367); test: cell-based or functional assay
[2] = target: T1, human IGF-1R, native, on cells (MCF-7, …); test: cell-based or functional assay; remark: listed apart in the source
[3] = target: T2, monkey IGF-1R on COS-7 cells (monkey (African green monkey)); test: cell-based or functional assay
[4] = target: T1, human IGF-1R, native, on cells (MCF-7, …); test: cell-based or functional assay; remark: listed apart in the source
[5] = target: T3, soluble recombinant human IGF-1R hetero-tetramer with C-terminal 10-His tag (R&D Systems 305-GR-50) (human, UniProt P08069 31-736; P08069 741-932); test: SPR Biacore X100, Ln(2)/koff
T3 construct: domain: alpha chain;domain: extracellular domain of the beta chain; Captured on an anti-His antibody chip; also called recombinant soluble human-IGF-1R; h-IGF-1R
Experimental: (§1) The dissociation constants (KD) of the binding of the antibodies on a recombinant soluble human-IGF-1R were defined by the ratio between the dissociation rate (koff) and the association rate (kₒₙ). The kinetic experiments were run on a Biacore X100 device using a CM5 sensor chip activated by a mouse anti-Tag His monoclobnal antibody. Around 12000 RU of antibodies are chemically grafted on the carboxymethyldextan matrix using the amine kit chemistry.
(§2) The experiments were carried out at 25° C. with a flow rate of 30 μl/min using the HBS-EP+ buffer (GE Healthcare) as the running and sample dilution buffer.
The single cycle kinetic scheme was used to define the kinetic parameters of the binding of the anti-IGF-1R antibodies on a soluble recombinant human IGF-1R captured by its two C-terminal 10 Histidine-tag. [0637] 1—A solution of a soluble recombinant version of the human IGF-1R hetero-tetramere: 2a chains and the extracellular domains of 2β chains expressed with an additional C-terminal 10-His tag (R&D Systems catalogue number 305-GR-50) was injected during one minute on the second flowcell at a concentration of 10 μg/ml. […] [0638] 2—After the capture phase, either the running buffer was injected 5 times (90 s each injection) or a growing range of 5 concentrations of one of the six antibodies was injected (90 s each injection) on both flowcells. […]

[6] = target: T3, soluble recombinant human IGF-1R …; test: SPR Biacore X100, His-captured recombinant human IGF-1R
Experimental: (§3) The recognition experiments were run on a Biacore X100 device using a CM5 sensor chip activated by an anti-Tag His antibody (His capture kit GE Healthcare catalogue number 28-9950-56). More than 11000 RU of antibodies are chemically grafted on the carboxymethyldextan matrix using the amine kit chemistry. The experiments were carried out at 25° C. with a flow rate of 30 μl/min using the HBS-EP buffer (GE Healthcare) as the running and sample dilution buffer.
(§4) A solution of a soluble recombinant version of the IGF-1R hetero-tetramere composed of 2a chains and the extracellular domains of 2β chains expressed with an additional C-terminal 10-His tag, based either on the sequence of the human (R&D Systems catalogue number 305-GR-50) or of the one of cynomolgus (produced in house) was injected 1 minute on the second flowcell at a dilution defined to capture around 160 RU of antigen. […] At the end of the fifth injection the running buffer was passed in order to define the dissociation rate.
(§5) The resulting sensorgrams were analysed using the Biaevaluation software with a 1:1 model. […] The quality of the fitting was assessed by a Chi2/Rmax ratio lower than 0.05 RU.

[7] = target: T4, soluble recombinant cynomolgus IGF-1R hetero-tetramer with C-terminal 10-His tag (produced in house) (cynomolgus monkey); test: SPR Biacore X100, His-captured recombinant cynomolgus IGF-1R
T4 construct: domain: alpha chain;domain: extracellular domain of the beta chain; Produced in house; also called Macaca IGF-1R; soluble monkey IGF-1R ECD
Experimental: as §3, §4, §5

[8] = target: T3, soluble recombinant human IGF-1R …; test: SPR Biacore X100, His-captured soluble h-IGF-1R (about 600 RU), mean of 4 experiments
Experimental: as §1, §2
The single cycle kinetic scheme was used to define the kinetic parameters of the binding of the anti-IGF-1R antibodies on a soluble recombinant human IGF-1R captured by its two C-terminal 10 Histidine-tag. [0637] 1—A solution of a soluble recombinant version of the human IGF-1R hetero-tetramere: 2a chains and the extracellular domains of 2β chains expressed with an additional C-terminal 10-His tag (R&D Systems catalogue number 305-GR-50) was injected during one minute on the second flowcell at a concentration of 10 μg/ml. […] [0638] 2—After the capture phase, either the running buffer was injected 5 times (90 s each injection) or a growing range of 5 concentrations of one of the six antibodies was injected (90 s each injection) on both flowcells. At the end of the fifth injection the running buffer was passed during 5 minutes in order to define the dissociation rate. [0639] 3—The surface was then generated with an injection of a 10 mM Glycine, HCl pH 1.5 buffer during 45 s.

[9] = target: T3, soluble recombinant human IGF-1R …; test: SPR Biacore X100, single cycle kinetics, His-captured human IGF-1R (about 160 RU), 1:1 model
Experimental: as §3, §4, §5

[10] = target: T2, monkey IGF-1R on COS-7 cells; test: FACS titration on Cos-7 cells
Experimental: (§6) The binding properties of the humanized variants were evaluated by FACS analyses on the human MCF-7 breast adenocarcinoma cell line and the monkey cell line Cos-7 using increasing antibody concentrations. For that purpose, cells (1×10⁶ cells/ml) were incubated with anti-IGF-1R antibodies for 20 min. at 4° C. in FACS buffer (PBS, 0.1% BSA, 0.01% NaN3). They were then washed 3 times and incubated with the appropriate secondary antibody coupled with Alexa 488 for 20 additional minutes at 4° C. in the dark before being washed 3 times in FACS buffer. The binding of anti-IGF-1R antibodies was immediately performed on viable cells which were identified using propidium iodide (that stains dead cells). The EC₅₀ of binding expressed in molarity (M) was calculated using a nonlinear regression analysis (GraphPad Prims 4.0).

[11] = target: T1, human IGF-1R, native, on cells (MCF-7, …); test: FACS titration on MCF-7 cells
Experimental: as §6

[12] = target: T1, human IGF-1R, native, on cells (MCF-7, …); test: FACS titration on MCF-7 cells, 4 C, secondary antibody, MFI; EC50 table inside the plot
[13] = target: T2, monkey IGF-1R on COS-7 cells; test: FACS titration on COS-7 cells, 4 C, secondary antibody, MFI; EC50 table inside the plot
[14] = target: T5, human insulin receptor on cells (IM9 cells, hIR+ transfected cell line) (human, UniProt P06213 28-1382); test: FACS titration on NIH 3T3 IR+ cells (human insulin receptor transfected), 4 C, secondary antibody, MFI
T5 construct: whole, on cells; also called human IR

Row | Binder | phosphorylation of hIGF-1R, % of phosphorylation induced by IGF-1 (MCF-7 cells, 10 µg/ml) [1] | ΔMFI (MCF-7, 10 µg/ml, 4 h) [2] | % internalisation (monkey IGF-1R) [3] | ΔMFI (monkey IGF-1R internalization) [3] | % internalization (MCF-7, 10 µg/ml, 4 h) [4] | ΔMFI (MCF-7, 10 µg/ml, 4 h) [4] | half-life of the complex [5] | Kd [6] | Kd [7] | Kd [8] | Kd [9] | EC50 [10] | EC50 [11] | EC50 [12] | EC50 [13] | binding result [14]
1 | B1 | < 10% | 288 MFI | 67% | 52 MFI | 82% | 278 MFI | 2 to 3 h | ~0.2 nM | ~0.2 nM | ~0.075 nM | 0.23 nM | – | – | – | – | –
2 | B2 | – | – | – | – | 87% | 344 MFI | 2 to 3 h | – | – | ~0.06 nM | – | 0.51 nM | 0.709 nM | 0.71 nM | 0.511 nM | no binding (tested: log [M] about -7.2 (about 6e-8 M))

— patent US20190202901A1 (PIERRE FABRE MEDICAMENT, published 2019)
